Laboratory results reported in patent publication US20140087995A1 (published 2014).
Numbered stars: 1 amine (or outer) side, 2 acyl side, 3 side chain; on linkers, the order of the positions; unused ones are H or OH. Bridge positions count the residues as written; N and C are the ends. Side chains are listed from the residue outwards. Ends that are not written are not given here. * marks the point of attachment. C20 diacid = O=C(O)CCCCCCCCCCCCCCCCCCC(=O)*; γGlu = O=C(O)[C@H](CCC(=O)[*:2])N[*:1]; AEEA = NCCOCCOCC(=O)O

What was measured:
[1] = biological target: T1, human amylin receptor (amylin 3(a) receptor: human calcitonin receptor with RAMP-3) (human, UniProt P30988 25-474; O60896 24-148); experiment: cell-based or functional assay
T1 sequence (looked up) 1: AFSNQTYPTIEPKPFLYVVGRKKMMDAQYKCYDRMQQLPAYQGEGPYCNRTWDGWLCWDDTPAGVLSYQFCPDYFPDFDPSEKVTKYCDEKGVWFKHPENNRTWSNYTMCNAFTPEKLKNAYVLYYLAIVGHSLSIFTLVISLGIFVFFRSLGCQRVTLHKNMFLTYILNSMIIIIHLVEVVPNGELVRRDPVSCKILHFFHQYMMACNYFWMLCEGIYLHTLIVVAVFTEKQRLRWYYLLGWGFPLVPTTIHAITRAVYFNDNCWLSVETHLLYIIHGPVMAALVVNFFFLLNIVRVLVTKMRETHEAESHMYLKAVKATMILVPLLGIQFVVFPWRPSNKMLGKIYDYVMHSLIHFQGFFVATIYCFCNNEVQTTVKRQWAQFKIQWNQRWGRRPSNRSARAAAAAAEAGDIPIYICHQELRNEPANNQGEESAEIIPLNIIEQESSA
T1 sequence (looked up) 2: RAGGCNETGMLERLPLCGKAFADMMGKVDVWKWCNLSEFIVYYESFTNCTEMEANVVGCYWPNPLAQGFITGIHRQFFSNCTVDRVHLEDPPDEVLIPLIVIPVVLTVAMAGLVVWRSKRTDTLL

[2] = biological target: T2, human calcitonin receptor (human, UniProt P30988 25-474); experiment: cell-based or functional assay
T2 sequence (looked up): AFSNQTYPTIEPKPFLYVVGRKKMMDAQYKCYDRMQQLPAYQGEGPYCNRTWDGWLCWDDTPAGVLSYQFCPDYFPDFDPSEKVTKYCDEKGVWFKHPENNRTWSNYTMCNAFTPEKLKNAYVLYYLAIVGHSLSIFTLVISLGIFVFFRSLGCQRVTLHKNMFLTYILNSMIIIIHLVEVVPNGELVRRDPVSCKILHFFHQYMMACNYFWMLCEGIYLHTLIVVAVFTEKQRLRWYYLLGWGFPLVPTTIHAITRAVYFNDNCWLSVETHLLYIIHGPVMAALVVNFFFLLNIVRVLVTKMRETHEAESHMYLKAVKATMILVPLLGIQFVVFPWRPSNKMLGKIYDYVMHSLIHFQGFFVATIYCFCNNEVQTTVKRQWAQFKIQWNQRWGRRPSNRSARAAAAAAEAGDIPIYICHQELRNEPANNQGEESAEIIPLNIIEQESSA

Binder	hAmylin-R funct. EC50 [1] [nM]	Ratio hCT/hAmylin funct. [2]	hCTR funct. EC50 [2] [nM]
{C20 diacid-γGlu}-KCNTATCATQRLAHFLRHSSPNFGAIPSSTNVGSETY-NH2 (disulfide 2-7; SMILES CC[C@H](C)[C@H](NC(=O)[C@H](C)NC(=O)CNC(=O)[C@H](Cc1ccccc1)NC(=O)[C@H](CC(N)=O)NC(=O)[C@@H]1CCCN1C(=O)[C@H](CO)NC(=O)[C@H](CO)NC(=O)[C@H](Cc1c[nH]cn1)NC(=O)[C@H](CCCNC(=N)N)NC(=O)[C@H](CC(C)C)NC(=O)[C@H](Cc1ccccc1)NC(=O)[C@H](Cc1c[nH]cn1)NC(=O)[C@H](C)NC(=O)[C@H](CC(C)C)NC(=O)[C@H](CCCNC(=N)N)NC(=O)[C@H](CCC(N)=O)NC(=O)[C@@H](NC(=O)[C@H](C)NC(=O)[C@@H]1CSSC[C@H](NC(=O)[C@H](CCCCN)NC(=O)CC[C@H](NC(=O)CCCCCCCCCCCCCCCCCCC(=O)O)C(=O)O)C(=O)N[C@@H](CC(N)=O)C(=O)N[C@@H]([C@@H](C)O)C(=O)N[C@@H](C)C(=O)N[C@@H]([C@@H](C)O)C(=O)N1)[C@@H](C)O)C(=O)N1CCC[C@H]1C(=O)N[C@@H](CO)C(=O)N[C@@H](CO)C(=O)N[C@H](C(=O)N[C@@H](CC(N)=O)C(=O)N[C@H](C(=O)NCC(=O)N[C@@H](CO)C(=O)N[C@@H](CCC(=O)O)C(=O)N[C@H](C(=O)N[C@@H](Cc1ccc(O)cc1)C(N)=O)[C@@H](C)O)C(C)C)[C@@H](C)O, also called compound 30)	0.134	12.6	1.68
{C20 diacid-γGlu}-KCNTATCATQRLAEFLRHSSPNFGAIPSSTNVGSETY-NH2 (disulfide 2-7; SMILES CC[C@H](C)[C@H](NC(=O)[C@H](C)NC(=O)CNC(=O)[C@H](Cc1ccccc1)NC(=O)[C@H](CC(N)=O)NC(=O)[C@@H]1CCCN1C(=O)[C@H](CO)NC(=O)[C@H](CO)NC(=O)[C@H](Cc1c[nH]cn1)NC(=O)[C@H](CCCNC(=N)N)NC(=O)[C@H](CC(C)C)NC(=O)[C@H](Cc1ccccc1)NC(=O)[C@H](CCC(=O)O)NC(=O)[C@H](C)NC(=O)[C@H](CC(C)C)NC(=O)[C@H](CCCNC(=N)N)NC(=O)[C@H](CCC(N)=O)NC(=O)[C@@H](NC(=O)[C@H](C)NC(=O)[C@@H]1CSSC[C@H](NC(=O)[C@H](CCCCN)NC(=O)CC[C@H](NC(=O)CCCCCCCCCCCCCCCCCCC(=O)O)C(=O)O)C(=O)N[C@@H](CC(N)=O)C(=O)N[C@@H]([C@@H](C)O)C(=O)N[C@@H](C)C(=O)N[C@@H]([C@@H](C)O)C(=O)N1)[C@@H](C)O)C(=O)N1CCC[C@H]1C(=O)N[C@@H](CO)C(=O)N[C@@H](CO)C(=O)N[C@H](C(=O)N[C@@H](CC(N)=O)C(=O)N[C@H](C(=O)NCC(=O)N[C@@H](CO)C(=O)N[C@@H](CCC(=O)O)C(=O)N[C@H](C(=O)N[C@@H](Cc1ccc(O)cc1)C(N)=O)[C@@H](C)O)C(C)C)[C@@H](C)O, also called compound 22)	0.27	3.8	1.03
{C20 diacid-γGlu-γGlu}-KCNTATCATQRLAEFLRHSSPNFGAIPSSTNVGSNTP-NH2 (disulfide 2-7; SMILES CC[C@H](C)[C@H](NC(=O)[C@H](C)NC(=O)CNC(=O)[C@H](Cc1ccccc1)NC(=O)[C@H](CC(N)=O)NC(=O)[C@@H]1CCCN1C(=O)[C@H](CO)NC(=O)[C@H](CO)NC(=O)[C@H](Cc1c[nH]cn1)NC(=O)[C@H](CCCNC(=N)N)NC(=O)[C@H](CC(C)C)NC(=O)[C@H](Cc1ccccc1)NC(=O)[C@H](CCC(=O)O)NC(=O)[C@H](C)NC(=O)[C@H](CC(C)C)NC(=O)[C@H](CCCNC(=N)N)NC(=O)[C@H](CCC(N)=O)NC(=O)[C@@H](NC(=O)[C@H](C)NC(=O)[C@@H]1CSSC[C@H](NC(=O)[C@H](CCCCN)NC(=O)CC[C@H](NC(=O)CC[C@H](NC(=O)CCCCCCCCCCCCCCCCCCC(=O)O)C(=O)O)C(=O)O)C(=O)N[C@@H](CC(N)=O)C(=O)N[C@@H]([C@@H](C)O)C(=O)N[C@@H](C)C(=O)N[C@@H]([C@@H](C)O)C(=O)N1)[C@@H](C)O)C(=O)N1CCC[C@H]1C(=O)N[C@@H](CO)C(=O)N[C@@H](CO)C(=O)N[C@H](C(=O)N[C@@H](CC(N)=O)C(=O)N[C@H](C(=O)NCC(=O)N[C@@H](CO)C(=O)N[C@@H](CC(N)=O)C(=O)N[C@H](C(=O)N1CCC[C@H]1C(N)=O)[C@@H](C)O)C(C)C)[C@@H](C)O, also called compound 14)	0.146	1.6	0.238
K([γGlu-C20 diacid])CNTATCATQRLANFLRHSSPNFGAIPSSTNVGSETY-NH2 (disulfide 2-7; N-terminus assumed; SMILES CC[C@H](C)[C@H](NC(=O)[C@H](C)NC(=O)CNC(=O)[C@H](Cc1ccccc1)NC(=O)[C@H](CC(N)=O)NC(=O)[C@@H]1CCCN1C(=O)[C@H](CO)NC(=O)[C@H](CO)NC(=O)[C@H](Cc1c[nH]cn1)NC(=O)[C@H](CCCNC(=N)N)NC(=O)[C@H](CC(C)C)NC(=O)[C@H](Cc1ccccc1)NC(=O)[C@H](CC(N)=O)NC(=O)[C@H](C)NC(=O)[C@H](CC(C)C)NC(=O)[C@H](CCCNC(=N)N)NC(=O)[C@H](CCC(N)=O)NC(=O)[C@@H](NC(=O)[C@H](C)NC(=O)[C@@H]1CSSC[C@H](NC(=O)[C@@H](N)CCCCNC(=O)CC[C@H](NC(=O)CCCCCCCCCCCCCCCCCCC(=O)O)C(=O)O)C(=O)N[C@@H](CC(N)=O)C(=O)N[C@@H]([C@@H](C)O)C(=O)N[C@@H](C)C(=O)N[C@@H]([C@@H](C)O)C(=O)N1)[C@@H](C)O)C(=O)N1CCC[C@H]1C(=O)N[C@@H](CO)C(=O)N[C@@H](CO)C(=O)N[C@H](C(=O)N[C@@H](CC(N)=O)C(=O)N[C@H](C(=O)NCC(=O)N[C@@H](CO)C(=O)N[C@@H](CCC(=O)O)C(=O)N[C@H](C(=O)N[C@@H](Cc1ccc(O)cc1)C(N)=O)[C@@H](C)O)C(C)C)[C@@H](C)O, also called compound 27) [N^ε1-[(4S)-4-carboxy-4-(19-carboxynonadecanoylamino)butanoyl]-[Arg17,Pro21,Pro27,Glu35]-h-amylin]	0.133	22.6	3
K([AEEA-γGlu-C20 diacid])CNTATCATQRLANFLRHSSPNFGAIPSSTNVGSETY-NH2 (disulfide 2-7; N-terminus assumed; SMILES CC[C@H](C)[C@H](NC(=O)[C@H](C)NC(=O)CNC(=O)[C@H](Cc1ccccc1)NC(=O)[C@H](CC(N)=O)NC(=O)[C@@H]1CCCN1C(=O)[C@H](CO)NC(=O)[C@H](CO)NC(=O)[C@H](Cc1c[nH]cn1)NC(=O)[C@H](CCCNC(=N)N)NC(=O)[C@H](CC(C)C)NC(=O)[C@H](Cc1ccccc1)NC(=O)[C@H](CC(N)=O)NC(=O)[C@H](C)NC(=O)[C@H](CC(C)C)NC(=O)[C@H](CCCNC(=N)N)NC(=O)[C@H](CCC(N)=O)NC(=O)[C@@H](NC(=O)[C@H](C)NC(=O)[C@@H]1CSSC[C@H](NC(=O)[C@@H](N)CCCCNC(=O)COCCOCCNC(=O)CC[C@H](NC(=O)CCCCCCCCCCCCCCCCCCC(=O)O)C(=O)O)C(=O)N[C@@H](CC(N)=O)C(=O)N[C@@H]([C@@H](C)O)C(=O)N[C@@H](C)C(=O)N[C@@H]([C@@H](C)O)C(=O)N1)[C@@H](C)O)C(=O)N1CCC[C@H]1C(=O)N[C@@H](CO)C(=O)N[C@@H](CO)C(=O)N[C@H](C(=O)N[C@@H](CC(N)=O)C(=O)N[C@H](C(=O)NCC(=O)N[C@@H](CO)C(=O)N[C@@H](CCC(=O)O)C(=O)N[C@H](C(=O)N[C@@H](Cc1ccc(O)cc1)C(N)=O)[C@@H](C)O)C(C)C)[C@@H](C)O, also called compound 26)	0.212	29.9	6.34
K([AEEA-AEEA-γGlu-C20 diacid])CNTATCATQRLANFLRHSSPNFGAIPSSTNVGSETY-NH2 (disulfide 2-7; N-terminus assumed; SMILES CC[C@H](C)[C@H](NC(=O)[C@H](C)NC(=O)CNC(=O)[C@H](Cc1ccccc1)NC(=O)[C@H](CC(N)=O)NC(=O)[C@@H]1CCCN1C(=O)[C@H](CO)NC(=O)[C@H](CO)NC(=O)[C@H](Cc1c[nH]cn1)NC(=O)[C@H](CCCNC(=N)N)NC(=O)[C@H](CC(C)C)NC(=O)[C@H](Cc1ccccc1)NC(=O)[C@H](CC(N)=O)NC(=O)[C@H](C)NC(=O)[C@H](CC(C)C)NC(=O)[C@H](CCCNC(=N)N)NC(=O)[C@H](CCC(N)=O)NC(=O)[C@@H](NC(=O)[C@H](C)NC(=O)[C@@H]1CSSC[C@H](NC(=O)[C@@H](N)CCCCNC(=O)COCCOCCNC(=O)COCCOCCNC(=O)CC[C@H](NC(=O)CCCCCCCCCCCCCCCCCCC(=O)O)C(=O)O)C(=O)N[C@@H](CC(N)=O)C(=O)N[C@@H]([C@@H](C)O)C(=O)N[C@@H](C)C(=O)N[C@@H]([C@@H](C)O)C(=O)N1)[C@@H](C)O)C(=O)N1CCC[C@H]1C(=O)N[C@@H](CO)C(=O)N[C@@H](CO)C(=O)N[C@H](C(=O)N[C@@H](CC(N)=O)C(=O)N[C@H](C(=O)NCC(=O)N[C@@H](CO)C(=O)N[C@@H](CCC(=O)O)C(=O)N[C@H](C(=O)N[C@@H](Cc1ccc(O)cc1)C(N)=O)[C@@H](C)O)C(C)C)[C@@H](C)O, also called compound 25)	0.217	46.2	10
